Measured values taken from publication doi:10.1101/2021.11.02.466972.

Biological target: T1, MBP-CahR (Pseudomonas putida KT2440) (UniProt Q88GQ3)
T1 sequence: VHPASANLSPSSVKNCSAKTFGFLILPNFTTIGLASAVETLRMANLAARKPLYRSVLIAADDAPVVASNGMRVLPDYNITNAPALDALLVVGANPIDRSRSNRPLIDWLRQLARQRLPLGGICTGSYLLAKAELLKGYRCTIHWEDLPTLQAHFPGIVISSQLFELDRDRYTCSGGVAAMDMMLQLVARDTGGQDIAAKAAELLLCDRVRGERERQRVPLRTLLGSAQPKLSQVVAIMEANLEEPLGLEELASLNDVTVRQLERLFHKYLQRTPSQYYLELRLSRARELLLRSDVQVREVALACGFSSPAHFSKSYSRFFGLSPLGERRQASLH
Test: EMSA
Details: buffer, not given

For “GTTTGTCCGAGACTTTGTGGCCGCCTGGCAGAAGGTCATGGAGCTGGACCGCTTTGATCTGAAATAGCGTTGCCTGGCGGGGGGGGCGCGCTCAGCGCCCCCTTGGCCAGTGGTTATCCCGCCAATTCCAGGTCGGATAGATACAAAAGTGTCCTCGTCGGTTCTGTTGCAATGCTTCTCAGGCGGCCGGCCTGAACAGCGTGCTCACAACGACAAGGAACCCCGACCATGCAAATGCCCAAGACC (double strand) [creA promoter probe]”, the binding was “binds”.
